Results on 167 variants are retold here after the RNAGym collection of RNA variant scans (doi:10.7554/elife.90254).

B1: LINE1-full (parent)
chain: UACGUAGGUGGUUUUCCCCUGAUAGUGCUAAGGGGGCCUGGAAGUUUGGACUGGGCAGAGCUCAACACAGCGUGGCAAAGUGGCUGUGGCUAGACUGCCUCUCUGGAUUCCUCGUCACUCAGCAGGGCAUCUCUGAGAGAAAUGCC

The variants in the series derive from B1. The experiment in a line: self-cleavage, relative activity (ratio to wild type); higher = more cleavage; in vitro, sequencing; the parent is a self-cleaving ribozyme.
Consider U14A A107G, for which the self-cleavage amounted to 1.1.

In the case of U13G U73A, the self-cleavage came to 2.54.

Consider U13C C38U, for which the self-cleavage was found to be 1.15.

Consider U14A G48A, for which the self-cleavage stood at 1.09.

For U13C C51G, the self-cleavage came out at 1.44.

U13C G25A: the self-cleavage was 1.31.

Turning to U13C U47A, the self-cleavage was determined as 1.02.

With U13C U47G, the self-cleavage was 0.81.

In the case of U13A U20C, the self-cleavage was found to be 1.03.

As to U13G U102C, the self-cleavage was found to be 0.66.

Consider U14C C63A, for which the self-cleavage stood at 0.06.

As to U14C G72A, the self-cleavage was 1.23.

Turning to U13C U29A, the self-cleavage came to 0.95.

For the variant U13C U29C, the self-cleavage is 1.35.

On to U13C G44A, for which the self-cleavage worked out at 0.75.

As to U14C G82A, the self-cleavage was 1.35.

On to U14A A67G, for which the self-cleavage was determined as 0.59.

As to U14C G21A, the self-cleavage was determined as 1.39.

In the case of U14A U100C, the self-cleavage is 0.78.

On to U14A U100A, for which the self-cleavage is 0.28.

On to U13C A24G, for which the self-cleavage stood at 1.16.

For the variant U14A U143A, the self-cleavage was found to be 0.99.

As to U13C C61U, the self-cleavage is 0.

As to U14A U134C, the self-cleavage is 1.62.

On to U14C C95U, for which the self-cleavage was 0.21.

Consider U13A G35A, for which the self-cleavage came to 0.65.

Consider U13C U81A, for which the self-cleavage came out at 1.56.

In the case of U13C G33A, the self-cleavage came out at 0.81.

Consider U13C C146U, for which the self-cleavage turned out to be 1.64.

On to U14A U47A, for which the self-cleavage turned out to be 0.81.

Take U14C G93U: the self-cleavage came to 0.06.

As for U13A G21U, the self-cleavage worked out at 0.47.

With U14C A141G, the self-cleavage is 1.03.

With U14C G125A, the self-cleavage came to 1.46.

Take U14A C90U: the self-cleavage worked out at 0.04.

Consider U13C C131U, for which the self-cleavage was determined as 1.79.

Consider U13G G34U, for which the self-cleavage came to 1.2.

For U13C C19U, the self-cleavage came out at 1.01.

With U14C A78U, the self-cleavage is 1.44.

In the case of U13C A138G, the self-cleavage was 1.6.

U13C G72U: the self-cleavage turned out to be 1.21.

For U13C A142G, the self-cleavage was 1.3.

U13C G36C: the self-cleavage turned out to be 0.96.

Consider U14C G89U, for which the self-cleavage worked out at 0.05.

Consider U13C G127C, for which the self-cleavage is 1.47.

In the case of U13C G127U, the self-cleavage was found to be 1.36.

With U14C C76A, the self-cleavage stood at 1.31.

Regarding U13C A107U, the self-cleavage was 1.14.

As to U14C C120U, the self-cleavage was 1.48.

Take U14A U115C: the self-cleavage was 1.06.

Take U14A U115A: the self-cleavage turned out to be 0.7.

For U13C U87A, the self-cleavage worked out at 0.1.

Take U13C U87C: the self-cleavage came to 0.24.

As to U14A U102C, the self-cleavage worked out at 1.19.

Take U14A U108C: the self-cleavage amounted to 0.87.

As to U14A U108G, the self-cleavage was 1.09.

Regarding U14C U20G, the self-cleavage was determined as 0.9.

Consider U14C U20A, for which the self-cleavage was determined as 0.89.

As for U14C A107G, the self-cleavage stood at 1.22.

As to U14C A107U, the self-cleavage came out at 1.2.

U14A U112A: the self-cleavage stood at 1.33.

U14A U112C: the self-cleavage was 0.79.

Consider U14A G54A, for which the self-cleavage is 0.4.

Consider U13G A117C, for which the self-cleavage came to 0.65.

Consider U14A A94U, for which the self-cleavage is 0.13.

U13C U119G: the self-cleavage came to 1.28.

In the case of U13C U119A, the self-cleavage worked out at 1.15.

For the variant U13G U143A, the self-cleavage came out at 1.33.

With U13C G93A, the self-cleavage came to 0.17.

As for U13C G93U, the self-cleavage was 0.03.

U13G C99U: the self-cleavage turned out to be 0.69.

As for U13A C133U, the self-cleavage amounted to 0.67.

For U14A A124G, the self-cleavage came to 0.62.

As to U14A A124U, the self-cleavage is 1.67.

On to U13A U46C, for which the self-cleavage was determined as 0.77.

As to U14C G106U, the self-cleavage worked out at 0.66.

For the variant U14C A79G, the self-cleavage came to 0.84.

Regarding U14C C111A, the self-cleavage stood at 1.2.

With U14C C111U, the self-cleavage turned out to be 1.14.

On to U14C G75A, for which the self-cleavage is 0.82.

As for U14A U87A, the self-cleavage came out at 0.15.

For U13C U112A, the self-cleavage amounted to 1.05.

Regarding U14A A59G, the self-cleavage came out at 0.14.

On to U13C U96C, for which the self-cleavage was found to be 0.17.

As to U13C U96A, the self-cleavage was found to be 0.11.

As for U14C A57G, the self-cleavage turned out to be 0.89.

For U14C A57C, the self-cleavage was determined as 0.36.

On to U14C A65G, for which the self-cleavage was determined as 0.12.

With U13C A79G, the self-cleavage turned out to be 1.25.

In the case of U13C A79U, the self-cleavage was 1.53.

As for U14A A69U, the self-cleavage was 0.06.

Regarding U14A A69G, the self-cleavage was 2.24.

For U13C C99G, the self-cleavage worked out at 0.39.

Take U13C C63U: the self-cleavage stood at 0.32.

In the case of U14C U15A, the self-cleavage turned out to be 0.93.

As to U14C U15C, the self-cleavage stood at 1.27.

For U13C U23A, the self-cleavage worked out at 1.09.

As to U13C U134C, the self-cleavage was 1.21.

Regarding U14A U23A, the self-cleavage turned out to be 0.72.

Consider U13C A65C, for which the self-cleavage is 0.15.

Take U13C A65U: the self-cleavage was determined as 0.2.

In the case of U13C A92U, the self-cleavage turned out to be 0.68.

U13C A92G: the self-cleavage was 0.

Consider U13A U134A, for which the self-cleavage stood at 0.51.

In the case of U13A U134G, the self-cleavage stood at 1.34.

With U13C G83U, the self-cleavage is 0.27.

With U14A A136U, the self-cleavage came out at 1.19.

For U14A A57C, the self-cleavage came to 0.04.

For the variant U14A A57G, the self-cleavage amounted to 0.75.

For U14A A57U, the self-cleavage turned out to be 0.03.

As to U13G A79G, the self-cleavage worked out at 2.7.

Turning to U13C G126A, the self-cleavage was determined as 1.22.

With U14C C56U, the self-cleavage is 0.18.

As for U13C C17A, the self-cleavage came to 1.4.

On to U13C G114U, for which the self-cleavage came out at 1.65.

As for U13C G114A, the self-cleavage is 1.16.

For U14C G137A, the self-cleavage stood at 0.82.

U14A A22U: the self-cleavage amounted to 1.6.

For U14C G70A, the self-cleavage came to 0.26.

Take U14A U85C: the self-cleavage amounted to 0.13.

In the case of U13C G70C, the self-cleavage was determined as 0.15.

For U13C C111A, the self-cleavage is 1.57.

For U14A A79G, the self-cleavage came out at 0.8.

On to U13A U102C, for which the self-cleavage stood at 0.84.

Take U13A U102G: the self-cleavage amounted to 0.41.

U14C G144A: the self-cleavage stood at 1.13.

Take U13C C110A: the self-cleavage was 1.29.

For the variant U13G U20A, the self-cleavage is 0.69.

U13A U100A: the self-cleavage was determined as 0.59.

In the case of U13A U100C, the self-cleavage is 1.28.

Turning to U14C A43U, the self-cleavage turned out to be 1.15.

For U14C A43G, the self-cleavage stood at 1.14.

Regarding U14C G114A, the self-cleavage was determined as 1.06.

Take U14C G32A: the self-cleavage came out at 0.99.

Turning to U14A A64U, the self-cleavage stood at 0.48.

For U14A A64G, the self-cleavage was 0.21.

Take U14C A67U: the self-cleavage was found to be 0.

Regarding U14C A67C, the self-cleavage was 0.13.

Consider U14C C116U, for which the self-cleavage was found to be 1.14.

Turning to U13C U132G, the self-cleavage was 1.02.

As for U13A U47C, the self-cleavage turned out to be 0.59.

As for U13C U14C, the self-cleavage amounted to 1.13.

U13C U14A: the self-cleavage turned out to be 0.79.

Turning to U14C A69U, the self-cleavage was determined as 0.07.

Regarding U14C A69C, the self-cleavage came out at 0.08.

For the variant U13A U130A, the self-cleavage turned out to be 1.15.

With U14C A117U, the self-cleavage was determined as 1.3.

In the case of U13G A107U, the self-cleavage is 1.58.

Consider U13G A107G, for which the self-cleavage amounted to 1.12.

Regarding U13C G86A, the self-cleavage is 0.13.

Take U13A U52C: the self-cleavage worked out at 1.78.

For the variant U14A G34A, the self-cleavage stood at 0.78.

Take U14A G34C: the self-cleavage turned out to be 1.98.

Take U13G G105A: the self-cleavage was 0.74.

Turning to U13A G55A, the self-cleavage turned out to be 0.21.

As to U13C U46C, the self-cleavage was found to be 1.17.

On to U13C C113A, for which the self-cleavage turned out to be 0.44.

With U13C C113U, the self-cleavage turned out to be 1.

For the variant U13C A129U, the self-cleavage turned out to be 1.13.

As to U13C A129G, the self-cleavage was determined as 1.52.

On to U14A U52A, for which the self-cleavage amounted to 1.09.

For U13C U109A, the self-cleavage worked out at 1.11.

Turning to U13C U109C, the self-cleavage is 1.

Turning to U13C U26A, the self-cleavage was 0.97.

Regarding U13C U26C, the self-cleavage worked out at 1.01.

On to U13C U130G, for which the self-cleavage turned out to be 0.95.

In the case of U14A A65G, the self-cleavage was 0.06.
